Test results published in patent US20020012942A1, “POLYPEPTIDES WITH A4 INTEGRIN SUBUNIT RELATED ACTIVITY” (Regents of the University of Minnesota, priority 1998, published 2002).
Where two headings read alike, the source gives them in different places. Where no end group is shown, it is not given here.

Assays:
[1] = system: A375SM human melanoma cells; experiment: Trypan blue exclusion assay; format: cell-based
[2] = molecular target: MPG/NG2 chondroitin sulfate proteoglycan (human) (UniProt Q6UVK1); experiment: SG1 peptide affinity column with purified MPG/NG2, linear NaCl gradient 15 mM to 1 M
MPG/NG2 chondroitin sulfate proteoglycan (human), sequence (Q6UVK1 30-2322): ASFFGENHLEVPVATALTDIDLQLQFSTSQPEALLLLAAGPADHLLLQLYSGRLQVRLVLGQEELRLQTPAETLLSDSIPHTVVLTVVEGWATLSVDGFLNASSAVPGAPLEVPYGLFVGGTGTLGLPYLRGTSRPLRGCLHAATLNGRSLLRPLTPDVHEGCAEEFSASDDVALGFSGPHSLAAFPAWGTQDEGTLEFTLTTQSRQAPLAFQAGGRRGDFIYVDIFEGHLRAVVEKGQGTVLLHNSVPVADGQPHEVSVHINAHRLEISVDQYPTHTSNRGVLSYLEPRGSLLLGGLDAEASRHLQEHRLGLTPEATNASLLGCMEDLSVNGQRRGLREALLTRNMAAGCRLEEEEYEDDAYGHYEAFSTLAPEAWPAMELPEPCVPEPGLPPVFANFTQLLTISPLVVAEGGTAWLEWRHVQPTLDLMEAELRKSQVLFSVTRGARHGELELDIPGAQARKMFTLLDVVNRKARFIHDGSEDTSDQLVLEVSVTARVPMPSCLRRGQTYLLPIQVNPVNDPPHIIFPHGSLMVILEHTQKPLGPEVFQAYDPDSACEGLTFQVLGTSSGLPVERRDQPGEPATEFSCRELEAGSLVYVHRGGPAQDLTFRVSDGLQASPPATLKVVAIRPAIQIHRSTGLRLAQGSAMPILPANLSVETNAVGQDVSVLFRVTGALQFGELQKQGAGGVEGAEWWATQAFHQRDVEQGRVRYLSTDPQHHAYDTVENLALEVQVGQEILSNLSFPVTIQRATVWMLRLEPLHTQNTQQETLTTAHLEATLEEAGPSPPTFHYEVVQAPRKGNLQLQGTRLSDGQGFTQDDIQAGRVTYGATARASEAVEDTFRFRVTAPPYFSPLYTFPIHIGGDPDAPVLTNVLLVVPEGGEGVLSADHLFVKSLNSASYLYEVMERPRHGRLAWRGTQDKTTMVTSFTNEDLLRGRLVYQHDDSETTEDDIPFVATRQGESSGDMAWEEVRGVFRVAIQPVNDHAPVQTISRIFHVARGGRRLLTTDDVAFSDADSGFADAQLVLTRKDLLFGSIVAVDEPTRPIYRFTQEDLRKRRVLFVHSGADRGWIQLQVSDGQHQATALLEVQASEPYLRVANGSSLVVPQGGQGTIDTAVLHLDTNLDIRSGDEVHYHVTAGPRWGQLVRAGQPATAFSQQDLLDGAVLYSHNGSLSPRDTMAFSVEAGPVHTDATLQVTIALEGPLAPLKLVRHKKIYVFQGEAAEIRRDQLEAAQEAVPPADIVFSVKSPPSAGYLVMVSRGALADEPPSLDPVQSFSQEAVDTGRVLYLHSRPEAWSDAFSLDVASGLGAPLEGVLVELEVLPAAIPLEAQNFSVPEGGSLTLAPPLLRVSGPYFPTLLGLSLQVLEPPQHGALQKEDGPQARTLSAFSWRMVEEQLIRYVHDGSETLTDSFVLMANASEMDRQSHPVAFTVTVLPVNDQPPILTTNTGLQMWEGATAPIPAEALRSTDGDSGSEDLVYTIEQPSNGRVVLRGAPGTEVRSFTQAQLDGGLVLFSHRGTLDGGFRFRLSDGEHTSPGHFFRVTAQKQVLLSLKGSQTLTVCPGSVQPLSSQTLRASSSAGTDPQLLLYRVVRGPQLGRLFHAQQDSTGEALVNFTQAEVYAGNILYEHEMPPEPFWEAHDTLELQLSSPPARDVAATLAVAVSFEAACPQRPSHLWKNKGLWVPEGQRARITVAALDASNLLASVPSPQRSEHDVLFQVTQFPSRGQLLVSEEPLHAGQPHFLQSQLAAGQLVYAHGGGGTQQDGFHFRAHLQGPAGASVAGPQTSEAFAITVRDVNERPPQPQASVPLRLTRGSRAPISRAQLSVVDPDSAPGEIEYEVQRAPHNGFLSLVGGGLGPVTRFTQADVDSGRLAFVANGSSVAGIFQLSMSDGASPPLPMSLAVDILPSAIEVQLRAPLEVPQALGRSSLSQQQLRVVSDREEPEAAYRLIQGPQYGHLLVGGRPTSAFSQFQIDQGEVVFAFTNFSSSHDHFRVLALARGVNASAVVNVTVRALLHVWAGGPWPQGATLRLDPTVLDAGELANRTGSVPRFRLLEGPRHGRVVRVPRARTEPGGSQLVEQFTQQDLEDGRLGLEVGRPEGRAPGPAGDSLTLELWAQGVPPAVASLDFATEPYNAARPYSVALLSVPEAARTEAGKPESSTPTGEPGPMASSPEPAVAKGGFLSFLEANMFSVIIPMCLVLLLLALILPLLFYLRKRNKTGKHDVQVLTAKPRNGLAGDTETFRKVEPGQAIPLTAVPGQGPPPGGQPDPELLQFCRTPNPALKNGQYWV

[3] = molecular target: CD44 proteoglycan (human, UniProt P16070-12 21-361, limits assumed); experiment: SG1 peptide affinity column with 125I-labeled melanoma cell lysate; pooled eluate immunoprecipitated with anti-CD44
CD44 proteoglycan, sequence (P16070 other isoform, or with tags, fused parts or gaps limits assumed): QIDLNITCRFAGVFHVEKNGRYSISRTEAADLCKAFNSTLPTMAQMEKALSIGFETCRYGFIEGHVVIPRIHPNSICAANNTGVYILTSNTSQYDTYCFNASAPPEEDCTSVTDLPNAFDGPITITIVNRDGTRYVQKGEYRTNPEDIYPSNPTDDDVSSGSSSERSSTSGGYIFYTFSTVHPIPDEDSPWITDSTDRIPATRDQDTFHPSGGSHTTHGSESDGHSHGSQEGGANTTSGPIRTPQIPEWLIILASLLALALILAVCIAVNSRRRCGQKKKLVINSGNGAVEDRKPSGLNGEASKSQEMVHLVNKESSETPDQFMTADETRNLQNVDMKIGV
Procedure: Peptide-affinity chromatography was performed according to the methods described in Iida et al., J. Cell Biol., 118, 431-444 (1992). SG1 was immobilized on CH-Spharose and blocked using standard methods as described in the manufacturer's instruction. (available from Pharmacia). Human melanoma cells were surface radiolabeled with ¹²⁵I using lactoperoxidase and extracted as described in Iida et al., Cancer Res., 55, 2177-2185 (1995). Cells were extracted with 50 mM Tris-HCl (pH 7.3) containing 50 mM β-octylglucoside, 15 mM NaCl, 1 mM Ca²+, 1 mM Mg²+, 1 mM Mn²+, 1 mM PMSF, and 1 mM NEM (extraction buffer) and then centrifuged at 36500 rpm for 1 h at 4° C. The cell lysates were first precleared by incubating with a mock-column, where no peptide was immobilized, and then applied on the SG1 column. The column was extensively washed with the extraction buffer and then bound proteins were subsequently eluted by a linear gradient of sodium chloride (15 mM to 1 M). Each fraction was counted by r-counter and positive fractions were pooled and immunoprecipitated as described below.
In order to study the function of SG1 site in α4β1 integrin, affinity chromatography was performed using immobilized SG1 polypeptide. […] Open circles represent the radioactivity in each fraction and the solid line represents the concentration of NaCl in each fraction. […]

[4] = system: A375SM human melanoma cells; experiment: Cell adhesion assay: A375SM melanoma cell adhesion to substrata coated with CS1/OVA; format: cell-based; details: A375SM cells on coated substrata
Procedure: Cell adhesion assays were performed as previously described in Iida et al., J. Cell Biol., 118, 431-444 (1992) with minor modifications. Ligands were diluted in PBS, and 50 μl aliquots were dispersed in triplicate into Immulon-1 polystyrene microtiter wells. The wells were incubated at 37° C. overnight, and nonspecific binding sites on plastic were then blocked by treating the wells with 200 ul of PBS/BSA.
Subconfluent A375SM human melanoma cells which had been radiolabeled overnight with ^3H-thymidine (3HTdR, specific activity 6.7 Ci/mmol; NEN Research Products, Boston, Mass.), were harvested by rinsing with 1 mM EDTA, washed two times with EMEM/BSA (EMEM containing 2 mg/ml BSA and 0.15 mM Hepes, pH 7.2) and adjusted to a concentration of […] in the same medium. Aliquots of 100 ul of the cell suspension were dispensed into the wells and the cells were incubated at 37° C. for 30 min. The assays were terminated by aspirating loosely bound and unbound cells from the wells, washing the wells three times, and solubilizing the bound cells in 0.5 N NaOH containing 1% SDS. Bound radioactivity, determined in a Beckman Model 3801 Liquid Scintillation Counter, was used to calculate the percentage of cells which remained adherent to each substratum. Unless otherwise indicated, the data represent the mean of triplicate determinations. […]

LQQKKEKDIMKKTI [SG1, LQQKKEKDIMKKTI]
Toxic activity on the cells (trypan blue exclusion) [1]: not be due to their toxic activity

DELPQLVTLPHPNLHGPEILDVPST [CS1, reference compound]
Toxic activity on the cells (trypan blue exclusion) ([1]; not shown): not be due to their toxic activity

B1: SG1 polypeptide (peptide)
peptide: LQQKKEKDIMKKTI
modifications: Immobilized on CH-Sepharose (CH-affinity beads) in the affinity chromatography; the coupling to the support is not carried by the letters.
notes: Synthetic peptide; used as soluble peptide in the adhesion assays; also called L-SG1; polypeptide SG1
NaCl concentration at elution [2]: 0.13 to 0.15 M
binding result [3]: no binding

B2: CS1/OVA: CS1 polypeptide chemically conjugated to ovalbumin using EDC (conjugate)
peptide: DELPQLVTLPHPNLHGPEILDVPST
chain: GSIGAASMEFCFDVFKELKVHHANENIFYCPIAIMSALAMVYLGAKDSTRTQINKVVRFDKLPGFGDSIEAQCGTSVNVHSSLRDILNQITKPNDVYSFSLASRLYAEERYPILPEYLQCVKELYRGGLEPINFQTAADQARELINSWVESQTNGIIRNVLQPSSVDSQTAMVLVNAIVFKGLWEKAFKDEDTQAMPFRVTEQESKPVQMMYQIGLFRVASMASEKMKILELPFASGTMSMLVLLPDEVSGLEQLESIINFEKLTEWTSSNVMEERKIKVYLPRMKMEEKYNLTSVLMAMGITDVFSSSANLSGISSAESLKISQAVHAAHAEINEAGREVVGSAEAGVDAASVSEEFRADHPFLFCIKHIATNAVLFFGRCVSP
Coating concentration that promoted half maximal cell adhesion [4]: 5 µg/mL
